Measurements as given in paper PMC12311796.

What was measured:
[1] = target: T1, BRD4 N-terminal tandem bromodomain fragment (BD1-BD2) (Homo sapiens, UniProt O60885 49-460); test: SPR; 1-200 uM ODN; SPR: 10 mM HEPES pH 7.4, 150 mM NaCl, 50 uM EDTA, 0.005% P20, 24 C; MST: PBS, 0.05% Tween-20, 22 C; NMR: 20 mM Na-phosphate pH 7.5, 80 mM KCl, 5% D2O, 25 C; nucleosome: 20 mM Tris-HCl pH 8.0, NaCl 2 M to 250 mM; details: protein: recombinant, tags: N-terminal His8 (RED-tris-NTA label for MST; Ni-NTA capture for SPR)
[2] = target: T1, BRD4 N-terminal tandem bromodomain …; test: SPR; SPR: 10 mM HEPES pH 7.4, 150 mM NaCl, 50 uM EDTA, 0.005% P20, 24 C; MST: PBS, 0.05% Tween-20, 22 C; NMR: 20 mM Na-phosphate pH 7.5, 80 mM KCl, 5% D2O, 25 C; nucleosome: 20 mM Tris-HCl pH 8.0, NaCl 2 M to 250 mM; details: protein: recombinant; tags: N-terminal His8 (RED-tris-NTA label for MST; Ni-NTA capture for SPR); parallel 3-quartet G4; unimolecular fraction about 50% in the NMR sample
[3] = target: T1, BRD4 N-terminal tandem bromodomain …; test: NMR; 80 mM KCl; 1:2 BRD4:G4 model; SPR: 10 mM HEPES pH 7.4, 150 mM NaCl, 50 uM EDTA, 0.005% P20, 24 C; MST: PBS, 0.05% Tween-20, 22 C; NMR: 20 mM Na-phosphate pH 7.5, 80 mM KCl, 5% D2O, 25 C; nucleosome: 20 mM Tris-HCl pH 8.0, NaCl 2 M to 250 mM; details: protein: recombinant; tags: N-terminal His8 (RED-tris-NTA label for MST; Ni-NTA capture for SPR); parallel 3-quartet G4; unimolecular fraction about 50% in the NMR sample
[4] = target: T1, BRD4 N-terminal tandem bromodomain …; test: SPR; no ligand; SPR: 10 mM HEPES pH 7.4, 150 mM NaCl, 50 uM EDTA, 0.005% P20, 24 C; MST: PBS, 0.05% Tween-20, 22 C; NMR: 20 mM Na-phosphate pH 7.5, 80 mM KCl, 5% D2O, 25 C; nucleosome: 20 mM Tris-HCl pH 8.0, NaCl 2 M to 250 mM; details: protein: recombinant; tags: N-terminal His8 (RED-tris-NTA label for MST; Ni-NTA capture for SPR); duplex flanks around G4 with opposing C-rich strand; about 50% G4 folded without PDS

CCCCCTCCCCCTCCCCCTCCCCC (structured_DNA) [iM]: no binding ([1]; i-motif).

Binder GGGAGGGAGGGAGGG (structured_DNA) [G4 (SE G4)] has a Kd [2] of 5 ± 3 µM and a Kd [3] of 6 ± 1 µM.

CAATCGGATCGAATTCGATCCGATTG (structured_DNA) [ds26]: no binding ([1]; hairpin).

B1: dsCntr (dsDNA)
DNA 1: ATCACACTTGGCTTTCAACCAGTCTATGCTGCAGCTGATCA
DNA 2: TGATCAGCTGCAGCATAGACTGGTTGAAAGCCAAGTGTGAT
B1: no binding ([1]; blunt).

B2: dsG4 (mixed)
DNA 1: ATCACACTTGGCAGGGAGGGAGGGAGGGATGCAGCTGATCA
DNA 2: TGATCAGCTGCATCCCTCCCTCCCTCCCTGCCAAGTGTGAT
With B2 the Kd [4] was 5 ± 3 µM.
